Laboratory results as given in patent publication US20130090457A1 (Janssen / Centocor, published 2013).

Columns and labels:
[1] = molecular target: full-length murine TLR3 on cells (mouse, UniProt Q99MB1 26-905); assay: cell-based or functional assay
cynomolgus TLR3 on cells = cynomolgus TLR3 on cells (cynomolgus, UniProt A0A2K5WT39 32-912); assay: cell-based or functional assay

Row | Binder | IC50 in the ISRE reporter gene assay, murine TLR3-transfected HEK293T, poly(I:C) [1] | IC50 in the cyno ISRE reporter assay (cynomolgus TLR3 on cells) | IC50 in the cyno NF-κB reporter assay (cynomolgus TLR3 on cells)
1 | mAb 5429 (antibody, mouse IgG1, kappa, V domains shown) VH: EVQLVASGGGLVKPGASLKLSCVASGFTFSDYWMAWVRQTPGKPMEYIGDIKSDGSKVNYAPSLKNRFTISRDNARTTLYLQMSNVRSEDTATYYCNRDIGPDWYFDFWGPGTMVTVSS VL: DIQMTQSPTSLSASLGETVTIECRASEDIYNGLAWYQQKPGKSPQLLIYDSNSLHTGVPSRFSGRGSGTQYSLRINSLQSEDVASYFCQQYYDYPLTFGSGTKLEIKR | 0.5 µg/mL |  | 
2 | mAb 15EVQ (antibody, human IgG4 S228P, kappa, F234A L235A) heavy: not shown light: DIQMTQSPSSLSASVGDRVTITCRASQSIGLYLAWYQQKPGKAPKLLIYAASSLQSGVPSRFSGSGSGTDFTLTISSLQPEDFATYYCQQGNTLSYTFGQGTKVEIKRTVAAPSVFIFPPSDEQLKSGTASVVCLLNNFYPREAKVQWKVDNALQSGNSQESVTEQDSKDSTYSLSSTLTLSKADYEKHKVYACEVTHQGLSSPVTKSFNRGEC |  | 1.74 µg/mL | 4.18 µg/mL
3 | mAb 15 (antibody, human IgG4 S228P, kappa) heavy: not shown light: DIQMTQSPSSLSASVGDRVTITCRASQSIGLYLAWYQQKPGKAPKLLIYAASSLQSGVPSRFSGSGSGTDFTLTISSLQPEDFATYYCQQGNTLSYTFGQGTKVEIKRTVAAPSVFIFPPSDEQLKSGTASVVCLLNNFYPREAKVQWKVDNALQSGNSQESVTEQDSKDSTYSLSSTLTLSKADYEKHKVYACEVTHQGLSSPVTKSFNRGEC | 22 µg/mL |  | 
4 | mAb c1811 (antibody, mouse IgG1, kappa, V domains shown) VH: EVQLVASGGGLVKPGASLKLSCVASGFTFSDYWMAWVRQTPGKPMEYIGDIKSDGSKVNYAPSLKNRFTISRDNARTTLYLQMSNVRSEDTATYYCNRDIGPDWYFDFWGPGTMVTVSS VL: DIQMTQSPTSLSASLGETVTIECRASEDIYNGLAWYQQKPGKSPQLLIYDSNSLHTGVPSRFSGRGSGTQYSLRINSLQSEDVASYFCQQYYDYPLTFGSGTKLEIKR | 0.7 µg/mL |  | 
